The values that follow come from patent US20080108128A1, “Resonance Energy Transfer Assay System for Multi-Component Detection” (priority 2003, published 2008).

This assay has as its target T1, CCR2 (Homo sapiens, UniProt P41597).
T1 construct: expressed in transfected cells; host or cells: Cos-7
The assay is described as follows: multiplex BRET assay of ligand induced CCR2:beta-arrestin-2 interaction in live Cos-7 cells. It is filed as cell-based. To be noted: Cos-7 cells co-expressing Rluc-Barr2, TRHR and CCR2 fusions (EYFP / t-dimer2(12)); MCP1 0.1 μM, 37° C. 10 min; coelenterazine h 5 μM. The source says: A construct for the expression of bovine beta-arrestin-2, N-terminally fused to Rluc (Rluc-Barr2) was constructed by amplification of the bovine beta-arrestin-2 coding sequence by PCR using the Barr2-fw and Barr2-re primers (template: construct containing bovine beta-arrestin2 in pcDNA3 (Invitrogen)). The 5′ and 3′ primers used contained EcoRV and NotI restriction enzyme sites, respectively. A second PCR product, containing the coding sequence for Rluc, was generated by amplifying the Rluc cDNA sequence with the primers Rluc-fw and Rluc-re using the plasmid pRL-CMV (Promega) as a template. This second PCR product contained HindIII and EcoRV restriction site at the 5′ and 3′ ends, respectively. Both PCR products were then cloned together into the HindIII/NotI sites of pcDNA3 (Invitrogen). […]
Ligands or combinations of ligands were added to the samples to a final concentration of 1 μM for TRH and 0.1 μM for MCP1, the natural ligands for the TRHR and CCR2 receptors, respectively. […] A Varian Eclipse fluorescence spectrometer (Varian) was used to record luminescence spectra in the range between 400-700 nm after coelenterazine h (Molecular Probes) was added to the samples to a final concentration of 5 μM.
The spectra were further analysed by integrating the peak areas of the EYFP and t-dimer2(12) emission peaks as described in Example 2. […]
A general note: Bioluminescence resonance energy transfer reports proximity on the nanometre scale.

T1 sequence (P41597 1-360 isoform P41597-2): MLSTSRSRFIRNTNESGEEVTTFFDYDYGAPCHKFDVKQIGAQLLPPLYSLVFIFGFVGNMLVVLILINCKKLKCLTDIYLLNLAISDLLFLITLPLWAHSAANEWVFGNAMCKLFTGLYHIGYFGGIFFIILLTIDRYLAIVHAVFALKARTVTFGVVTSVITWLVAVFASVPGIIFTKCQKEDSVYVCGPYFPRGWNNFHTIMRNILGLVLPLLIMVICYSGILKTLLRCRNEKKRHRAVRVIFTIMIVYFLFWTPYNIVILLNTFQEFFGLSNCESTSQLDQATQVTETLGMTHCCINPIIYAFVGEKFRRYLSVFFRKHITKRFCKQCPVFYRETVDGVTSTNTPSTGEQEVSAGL
T1 sequence (P32120 whole entry partner): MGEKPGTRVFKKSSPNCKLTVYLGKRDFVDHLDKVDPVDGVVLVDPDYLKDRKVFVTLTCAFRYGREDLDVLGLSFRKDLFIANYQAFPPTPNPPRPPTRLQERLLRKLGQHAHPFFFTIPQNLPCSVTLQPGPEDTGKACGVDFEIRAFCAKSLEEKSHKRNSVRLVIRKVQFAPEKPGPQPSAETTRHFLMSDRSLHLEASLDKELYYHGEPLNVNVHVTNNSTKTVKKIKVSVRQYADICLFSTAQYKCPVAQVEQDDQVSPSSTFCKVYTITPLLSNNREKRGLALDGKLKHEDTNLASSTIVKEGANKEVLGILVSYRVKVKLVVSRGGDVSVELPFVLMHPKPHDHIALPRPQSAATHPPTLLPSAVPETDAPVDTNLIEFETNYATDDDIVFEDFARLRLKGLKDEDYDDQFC

On to “MCP1: natural ligand for the CCR2 receptor”, for which the “ligand induced RET signal of CCR2 with Rluc-beta-arrestin-2” value is on record as “activated this receptor as was observed in an increase of the respective RET signal with beta-arrestin-2”.
